Data on 41 sequences can be found in the nanobody polyreactivity screen of Harvey et al. (2022).

The series is described as follows: yeast display, Sf9 membrane polyspecificity reagent, FACS + sequencing; frameworks hold sequencing errors. In outline:
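Nanobodies came from a synthetic yeast display library in Saccharomyces cerevisiae BJ5465, induced with galactose for 36–48 hours and stained for 1 hour at 4 °C with 10% biotinylated, detergent-solubilized Sf9 membrane reagent. Cells were enriched on streptavidin microbeads and then FACS-sorted, with low and high (top ~1%) gates set on anti-HA fluorescence for expression and streptavidin fluorescence for reagent binding. Each polyreactivity label reflects the gate a clone came from. Genes were amplified by colony PCR, sequenced by MiSeq 2 × 250 and filtered by CDR length.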
Regarding “QVQLVESAGGLVQAGGSLRLSCAASGFSFYYNTMGWYRQAPGTEWELVASITWSGDTTYYADSVKGRFTISRDNAKNTVYLQMNSLKPEDTAVYYCAAVPYYPYRRYDYWGQGTQVTVAS”, the “polyreactivity (PSR sort gate)” value is “low polyreactivity”.
Take “QVQLVESGGGLVKAGGSLLLSCAASGRTIAYNAMGWYRQATGKERELVDAISNSGGRTYYADSVKGRFTISRDNAKNTVYLQMKSLKPEDTAVYYCAAYPVYRSVVSAYGYNYWGQGTQVTVSS”: the “polyreactivity (PSR sort gate)” value is “high polyreactivity”.
With “QVQLVESGGGLVQAGGSLRLSCAASGLIFYYYAMGWYRQAPGKERELVAAITTGGGTYYADSVKGRFTISRDNAKNTVYLQMNSLKPEDTAVYYCAVYYRSYWGYEYWGQGTQVTVSS”, the “polyreactivity (PSR sort gate)” value was “high polyreactivity”.
“QVQLVESGGGLVQAGGSHRLSCAASGRIFTYYAMGWYRQAPGKQREFVAAITYRGGRTYYADSVKGRFTISRDNAKNTVYLQLNSLNPEDTAVYYCNVAPYGYWPRYYPWRELDYWGQGTQVTVSS”: the “polyreactivity (PSR sort gate)” value was “high polyreactivity”.
In the case of “QVHLLESGGGLLQAGGSLRLSCAASGLIFRPYAMGWYRQAPGKERELVAGISFRGDSTYYADSVKGRFTISRDNAKNTVYLHMNSLKPEDTAVYYWNKRKASSSGYNYWGQGTQVTVSS”, the “polyreactivity (PSR sort gate)” value is on record as “low polyreactivity”.
Consider “QVQLVESGGGLVQAGGSLRLSCAASGRTFVKNAMGWYRQAPGKERELVAAISRTGSTNYADSVKGRFTISRDNAKNTVYLQMNSLKPEDTAVYYCAAVRYDYWGQGTQVTVSS”, for which the “polyreactivity (PSR sort gate)” value is “low polyreactivity”.
“QVQLVESGGGLVQAGGSLRLTCAASGSIFDYYAMGWYRQAPGKEWELVAAISNGGTTNYADSVKGRFTLSRDNAKNTVYLQMNRLKPEDTAVYYCNADSALYDKAVIYSEYDYWGQGTQVTVSS”: the “polyreactivity (PSR sort gate)” value is “low polyreactivity”.
As to “QVQLVESGGGLVQAGGSLRLSCAASGLIFSRYTMGWYRQAPGKERELVAAISLGGGRTYYADSVKGRFTISRDNAKNTVYLQMNSLKPEDTAVYYCAATRYYSSDYWGQGTQVTVSS”, the “polyreactivity (PSR sort gate)” value was “low polyreactivity”.
The same measure for “QVQLVESGGGLVQAGGSLRLSCAASGSTSDINAMGWYRQARGKEWQLVAVITDSSNTDYADSVKGRFTISRDNAKNTVYLEMNSLKPEETAVYYCAADRDEPDPYDYWGPGTQVTVSS”: “low polyreactivity”; for “QVHLVESGGGLVQAGGSLRLSCAASGFIFDKYAMGWYRQAPGKERELVAAITDTGGNTYYADSVKGRFTISRDNAKNTVYLQMNSLKPEDTAVYYCNADYNDYQTYSATTYEYWGQGTQVTVSS”: “low polyreactivity”; for “QVQLVESGGGLVQAGGSLRLSCSASGRFYVINYMGRYRQAPGKERELVAANTWGSSTYADSEKGRFTISRDNAKITVYFQMNSLKQEDTAVYYCSRDVYPSTWEYDYWGQGTQVTVSS”: “low polyreactivity”.
Take “QVQLVDSGGGLVQAGGSLRLSCAASGRIFGPYAMVWYRQAPGKERELVASISYSGGSTYYADSVKGRFTISRDNAKNTVYLQMNSLKPEDTAVYYCAKGGYWGGYNYWGQGTQVTVSS”: the “polyreactivity (PSR sort gate)” value is “low polyreactivity”.
Turning to “QVQLVESGGGLVQAGGTLRLSCAASGRTFTYYAMGWYRQAPGKERELVATIRSGGTTNYADSVKGRFTISRDNAKNTVYLQMNSLKPEDTAEYYCARVLSYVWYYRDPYQYPDYDFWGQGTQVTGSS”, the “polyreactivity (PSR sort gate)” value is “low polyreactivity”.
Consider “QVQLVESGGRLVQAGGSLRLSCAASGRIFIYNAMGWYRQAPGKERELVAAISVSGGRTYYADSVKGRFTISRDNAKNTVYLQMNSLKPEDTAVYYCNKVRVGSLRGYWGQGTQVTVSS”, for which the “polyreactivity (PSR sort gate)” value is “high polyreactivity”.
As for “QVQLVESGGGLVQAGGSLRLSCAASGSIFRGNAMGWYRQAPGKERELVAAISKSGGSTYYADSVKGRFTISRDNAKNTVYLQMNSLKPEDTAVYYCAARTTYLYGMYYWGQGTQVTVSS”, the entry is “low polyreactivity”.
On to “QVQLVESGGGLVQAGGSIGLNCAASVSSYEPYVMGWYRQATGKEMELVGAIYESGDTTYYADSVKGRFTISRDNAKNTVYLQMNSLKPEDSAVYYCNAEDPSIYGWWRVGEYDYWGQGTQVTVSS”, for which the “polyreactivity (PSR sort gate)” value is “low polyreactivity”.
Regarding “QVQLVESGGGLVQAGGSLRLSCAASGRIINYYAMGWYRPAPGKERELVAGISWSGGSTSYADSVKGRFTISRDNAKNTVYLQMNSLKPEDTAVYYCAAGVFKAFYYWGQGTQVTVSS”, the “polyreactivity (PSR sort gate)” value is listed as “low polyreactivity”.
For the sequence “QVQLVESAGGLVQAGGSLRLSCAASGSTFIRYAMGWYRQAPGKERELVAAITRGGSTYYADSVKGRFTISRDNAKYTVYLQMNSLKPEDTAVYYCAAGYYGNGVFEYDYWGQGTQVTVSS”, the “polyreactivity (PSR sort gate)” value is given as “low polyreactivity”.
As for “QVQLVESGGGLVQAGGSLRLSCAACGSIFPGYAMGWYREAPGKERELVAAITWNGGRTYSADSVKGRFTISRDNAKNTVYLQMNSLKPEDTAVYYCAVAGYAGLSVKYGYWGQGTQVTVSS”, the entry is “high polyreactivity”; as for “QVQLVESGGGSVQAGGSLRLSCAASGYIFGVYDMGWYRQAPGKERELVAAISSGGSTNYADSVKGRFTISRDNAKNTVYLQMNSLKPEDTAVYYCNADYIFYYEYDYWGQGTQVTVSS”, “low polyreactivity”.
As for “QVQLVESGGGFVQAGGSLRLSCAASGFTFFPYAMGWYRQAPGNEWELVAAISWSGGRTYYADSVKGRFTISRDNAKNTVYLHMNSLKPEDTAVYYCNARWRSGPRAYDYWGHGTQVTVSS”, the “polyreactivity (PSR sort gate)” value is “high polyreactivity”.
In the case of “QVQLVESAGGLVQAGGSLRLSCAATGSIFHPYAMGWYRQAPGKERELVASITSSGGSTYYADSVKVRFTISRENAKNTVYLEMNSLKPEDTAVYYCKAQFLVYFFWYSTTAYIMYYWGQGTQVTVSS”, the “polyreactivity (PSR sort gate)” value was “low polyreactivity”.
For the sequence “QVQRVESGGGLVQAGGSLRLSCAASGRTFRYYAMGWYRQAPGKERELVAAITSGGSTSYADSVKGRFTISRDNAKNTVYLQMNSLKPEDTAVYYCAAVPAGLWATYPQFRYGYWGQGTQVTVSS”, the “polyreactivity (PSR sort gate)” value is “high polyreactivity”.
Regarding “QVQLVESGGGLVQAGGSLRLSCAASGRIFPHNAMGWYRQAPGKERELVAAITKSGDDTYYADSVKGRFTISRDNAKNTVYLQMNSLKPEDTAVYYCAAYLSWYDYWGQGTQVTVSS”, the “polyreactivity (PSR sort gate)” value is given as “low polyreactivity”.
Turning to “QEQLVESGGGLVQAGGSLRLSCAASGSIRYYAMGWDRQAPGKESELVATITRGGSTYYADSVKGRFTISRDNAKNTVYLQMNSLKPEDTAVYYCAARRAVRVGYYWHDISSYDYWGQGTQVTVSS”, the “polyreactivity (PSR sort gate)” value was “low polyreactivity”.
On to “QVQLVESGGGLVQAGGSLRLICAASGRIFRGYAMGWYRQAPGKERELVAAISGRGGRTNYADSVKGRFTISRDNAKNTVYLQMNSLKPEDTAVYYCATVPYTASRYEYWGQGTQVTVSS”, for which the “polyreactivity (PSR sort gate)” value is “high polyreactivity”.
With “QVQLVESGGGLVQAGGSLRLSCAASGSTFDDNAMGWYRQAPGKERELVAGISTNGGSTSYADSVKGRFTISRDNAKNTVYLQMNSLKPEDTAVYYCAKGMYVQFDYWGQGTQVTVSS”, the “polyreactivity (PSR sort gate)” value was “low polyreactivity”.
On to “QVQLVESGGGLVQAGGSLRLSCAASGRILFGYAMGWYRQAPGKERELVADITSTGSTNYADSVKGRFTISRDNAKNSVYLQMNSLKPEDTAVYYCNARRESYYQRYRVDYWGQGTQVTVSS”, for which the “polyreactivity (PSR sort gate)” value is on record as “low polyreactivity”.
As to “QVQLVDSGGGLVQAGGSLRLSCAASGIIIKLYAMGWYRQAPGKEREFVATITKTGGRTYYADSVKGRFTISRDNAKNTVYLQMNSLKPEDTAVYYCAARRVNGKMYYWGQGTQVTVSS”, the “polyreactivity (PSR sort gate)” value is reported as “high polyreactivity”.
As for “QVQLVESGVGLVQAGGSLRLSCAASGFIFYRNAMGWYRPAPGKERELVAGISRVGSTYYADSVKGRFTISRDNAKNTVYLQMKSLKPEDTAVYYCATSTYAYRRNSYYYTRPRFGYWGQGTQVSVSS”, the entry is “high polyreactivity”; as for “QVQLVESGGGLVQAGGSLRLSCAASGRTFGHNAMGWYRQAPGKERELVAAISASGSNTYYADSVKGRFTISRDNAKNTVYLQMNSLKPEDTAVYYCAKQVYRTGQQSRYDYWGQGTQVTVSS”, “low polyreactivity”; as for “QVQLVESGGGLVQAGGSLRLSCAASGIIFLENAMGWYRQAPGKERELVAGISSGGNTNYADSVKGRFTISRDNAKNTVYLQMNSLKPEDTAVYYCNTDWYLPRYVLLGYFSGTEDYWGQGTQVTVSS”, “low polyreactivity”.
Turning to “QFQLVESGGGLVQAGGSLRLSCAASGFTFWLYAMGWYRQAPGKEREFVAAISTSGGSTYADSVKGRFTISRDNAKNTVYLHMNSLKPEDTAVYYCNAGYLLYYDYHLFYWGQGTQVTVSS”, the “polyreactivity (PSR sort gate)” value is listed as “low polyreactivity”.
Turning to “QVQLVESGGGLVQAGGSLRLRCAASGIIFYGNAMGWYRPAPGQERELVAAISRRSGSTYYADSVKGRFTISRDTAKNTVYLQMNSLKPEDTAVYYGNKRAANAVTINDMDYWGQGTQVTVSS”, the “polyreactivity (PSR sort gate)” value is on record as “high polyreactivity”.
On to “QVQLVESGGGLVQAGGSLRLSCAASGRIFLKNAMGWYRQAPGKERELVAVISRGGSTYYADSVKGRFTISRDNAKNTVYLQMNSLKPEDTAVYYCAAPYNVIFGGLDYWGQGTQVTVSS”, for which the “polyreactivity (PSR sort gate)” value is “high polyreactivity”.
The same measure for “QVQLVESGGGLVQAGGSLRLSCAASGRIFGIYAMGWYRQAPGKERELVASITGSSGSTNYADSVKGRFTISRDNAKNTVYLQMNSLKPDDTAVYYCAADIPSYYWWRAYDYWGQGTQVTVSS”: “low polyreactivity”; for “QVQLVESGGGFVQAGGSLRLSSAASGRTFYFYTMLWYRQAPGKERELVAAISWSGGSTYYADSVKGRFTISRDNAKNTVYLQMNSLKPEDTAVYYCAASSPWDQSNDQFYYWGQGTQVTVSS”: “low polyreactivity”.
For “QVQLVESGGGLVQAGGSLRLSCAASGSIFESYAMGWYRQAPGKERELVAAITLSGTSTYYADSVKGRFTISRDNAKNTVYLQMNSLKPEDTAVYYCNAKPIPVRGSYDYWGQGTQVTVSS”, the “polyreactivity (PSR sort gate)” value is reported as “low polyreactivity”.
As for “QVQLVESGGGLVQAGGSLRLSCAASGRTFDGYAMGWYRQAPGKERELVAAIDYDGVSTYYADSVKGRFTISRDNAKNTVYLEMNSLKPEDTAVYYCAVDATDDWWLDYWGQGTQVTVSS”, the entry is “low polyreactivity”.
As for “QVQLVESGGGLVQAGGSLRLSCAASGLIFGTNAMGWYRQAPGKERELVAYITSGGSTYADSVKGRFTISRDNAKNTVYLQMNSLKPEDTAVYYCAAYVFWAFYEYDYWGQGTQVTVSS”, the entry is “low polyreactivity”; as for “QVQLVESGGGLVQAGGSLRLSCADSGSTLIGNAMGWYRQAPGKERELVAAISSGGRTYYADSVKGRFTISRDNAKNTVYLQMNSLKPEDTAVYYCAADTVGTNVVSPELDYWGQGTQVTVSS”, “low polyreactivity”.
